The MegaScale stability set (Tsuboyama et al. 2023)

B1: EHEE_rd2_0196 (parent)
chain: TETRTFDSEEEAKKAQKEAEKQGRTVTITRRDDRWEVRFD

Variants of: B1
Test: folding stability dG (cDNA display proteolysis); higher = more stable
Settings: PBS, room temperature

Folding stability dG [kJ/mol], by site and new letter:
T29: H 11.5; I 13.4; K 10.2; L 10.6; M 10.4; N 10.2; P 0.0669; Q 10.8; R 11.5; S 11.4; V 13.2; W 7.55; Y 9.23
R30: A 9.64; D 4.11; E 8.45; F 13.9; G 7.16; H 10.8; I 10.3; K 13; L 11.8; M 11.7; N 9.39; P 8.64; Q 11.8; S 8.11; T 8.01; V 10.5; W 11.2; Y 11.8
R31: A 9.95; D 7.48; E 8.36; F 11.5; G 7.01; H 11.3; I 13.7; K 13.1; L 12.2; M 11.6; N 10.8; P 3.54; Q 10.7; S 9.59; T 10.7; V 14.3; W 9.11; Y 10.7
D32: A 12.2; E 12.9; F 10.7; G 16.7; H 11.8; I 8.82; K 12.6; L 11; M 10.9; N 13.8; P 7.34; Q 12.4; R 10.4; S 10.3; T 8.6; V 9.59; W 7.7; Y 9.15
D33: A 8.21; C 10.3; E 11.3; F 6.5; G 14.2; H 10.5; I 5.74; K 9.06; L 7.14; M 8.17; N 12.9; P 5.07; Q 10.3; R 7.67; S 9.87; T 8.73; V 5.85; W 5.61; Y 6.18
R34: A 11.8; D 8.51; E 10.1; F 13.1; G 13.2; H 13.1; I 13.1; K 14.7; L 13.1; M 13.1; N 10.1; P 2.8; Q 12.4; S 11.6; T 11.3; V 13.1; W 11.7; Y 13.3
W35: A 1.74; D 2.42; E 2.01; F 9.14; G 1.51; H 2.21; I 5.03; K 0.243; L 3.61; M 2.35; N 1.66; P 1.85; Q 1.46; R 0.879; S 1.98; T 1.67; V 3.17; Y 8.7
E36: A 5.54; D 8.6; F 10.5; G 2.7; H 8.7; I 12.5; K 3.56; L 10.3; M 8.61; N 4.79; Q 8.14; R 4.53; S 4.97; T 7.27; V 12.1; W 8.11; Y 10.7
V37: A 7.9; C 7.53; D 1.74; E 1.55; F 4.29; G 4.56; H 0.887; I 11.1; K 1.57; L 11.9; M 9.07; N 2.26; P 2.31; Q 1.61; R -1.57; S 2.02; T 5.49; W -0.0251; Y 1.85
R38: A 11.7; D 9.13; E 11.2; F 9.73; G 8.8; H 12.7; I 12.8; K 12.4; L 11.3
